Results taken from patent publication US20110045489A1, “Polymerases for Incorporating Modified Nucleotides” (NEW ENGLAND BIOLABS, INC., priority 2008, published 2011).
Residue numbers refer to the chain shown, from its start. In names and notes the source's numbering stands. Blank lines part the entries; values can stand above or below the molecule they belong to.

System: modified nucleotide
Test: Screen of DNA polymerase mutants for modified nucleotide incorporation
Format: biochemical
Excerpt: In order to determine the extent of 3′-modified nucleotide incorporation by archaeon DNA polymerases, the titration assay described by Gardner and Jack (2002) was used. In this assay, the efficiency of incorporation of chain terminators was judged by the size of the reaction products in a polymerization reaction. As the efficiency of chain-terminator incorporation increased, the average reaction product size decreased because polymerization was more often halted by terminator addition. By comparing the amount of terminator required to give the same spectrum of reaction products, the relative efficiency of incorporation of the test compounds with the different polymerases was determined.
A complex library of 9° N DNA polymerase mutants was screened for enhanced incorporation of 3′-azido-ddCTP. Several classes of 9° N DNA polymerase mutants were identified with enhanced terminator incorporation. 9° N exo-L408S/Y409A/P410V (Therminator III™, NEB, Inc., Ipswich, Mass.) was purified and characterized in more detail. 9° N DNA polymerase single mutants P410V, L408S, and Y409A and double mutants L408S/P410V, L408S/Y409A, and Y409A/P410V were also purified for comparison. Purification and characterization of DNA polymerase mutants was as described in Gardner and Jack, Nucleic Acids Res. 27:2545-2553 (1999).
A library of 9° N DNA polymerase mutants was constructed by PCR amplification of the polymerase genes using gene-specific primers or codon optimization and gene synthesis Czar et al. Trends Biotechnol 27(2): 63-72 (2009)). The ability to incorporate 3′-modified nucleotide terminators was evaluated by the titration assay for chain terminator incorporation efficiency as described by Gardner and Jack (2002).
Furthermore, the same assay was used to measure 3′-amino-ddCTP incorporation by 9° N exo-L408S/Y409A/P410V (FIG. 3) and to measure rates of incorporation (FIG. 4). Examples of mutants that increased modified nucleotide incorporation by at least two-fold were: […]

increase of modified nucleotide incorporation: at least two-fold
B1: 9° N D141A/E143A/N491V/Y494H: 9° N DNA polymerase mutant (protein, UniProt Q56366 1-775, looked up, variant D141A E143A N491V Y494H)
DNA polymerase: MILDTDYITENGKPVIRVFKKENGEFKIEYDRTFEPYFYALLKDDSAIEDVKKVTAKRHGTVVKVKRAEKVQKKFLGRPIEVWKLYFNHPQDVPAIRDRIRAHPAVVDIYEYDIPFAKRYLIDKGLIPMEGDEELTMLAFAIATLYHEGEEFGTGPILMISYADGSEARVITWKKIDLPYVDVVSTEKEMIKRFLRVVREKDPDVLITYNGDNFDFAYLKKRCEELGIKFTLGRDGSEPKIQRMGDRFAVEVKGRIHFDLYPVIRRTINLPTYTLEAVYEAVFGKPKEKVYAEEIAQAWESGEGLERVARYSMEDAKVTYELGREFFPMEAQLSRLIGQSLWDVSRSSTGNLVEWFLLRKAYKRNELAPNKPDERELARRRGGYAGGYVKEPERGLWDNIVYLDFRSLYPSIIITHNVSPDTLNREGCKEYDVAPEVGHKFCKDFPGFIPSLLGDLLEERQKIKRKMKATVDPLEKKLLDYRQRAIKILAVSFHGYYGYAKARWYCKECAESVTAWGREYIEMVIRELEEKFGFKVLYADTDGLHATIPGADAETVKKKAKEFLKYINPKLPGLLELEYEGFYVRGFFVTKKKYAVIDEEGKITTRGLEIVRRDWSEIAKETQARVLEAILKHGDVEEAVRIVKEVTEKLSKYEVPPEKLVIHEQITRDLRDYKATGPHVAVAKRLAARGVKIRPGTVISYIVLKGSGRIGDRAIPADEFDPTKHRYDAEYYIENQVLPAVERILKAFGYRKEDLRYQKTKQVGLGAWLKVKGKK

increase of modified nucleotide incorporation: at least two-fold
B2: 9° N D141A/E143A/Y409A/R406L/L408G: 9° N DNA polymerase mutant (protein, UniProt Q56366 1-775, looked up, variant D141A E143A Y409A R406L L408G)
DNA polymerase: B1 DNA polymerase with R406L, L408G, Y409A, V491N, H494Y

increase of modified nucleotide incorporation: at least two-fold
B3: 9° N D141A/E143A/R406E/L408G: 9° N DNA polymerase mutant (protein, UniProt Q56366 1-775, looked up, variant D141A E143A R406E L408G)
DNA polymerase: B1 DNA polymerase with R406E, L408G, V491N, H494Y

increase of modified nucleotide incorporation: at least two-fold
B4: 9° N D141A/E143A/Y409A/R406V/A485L: 9° N DNA polymerase mutant (protein, UniProt Q56366 1-775, looked up, variant D141A E143A Y409A R406V A485L)
DNA polymerase: B1 DNA polymerase with R406V, Y409A, A485L, V491N, H494Y

increase of modified nucleotide incorporation: at least two-fold
B5: 9° N D141A/E143A/R406T/L408E: 9° N DNA polymerase mutant (protein, UniProt Q56366 1-775, looked up, variant D141A E143A R406T L408E)
DNA polymerase: B1 DNA polymerase with R406T, L408E, V491N, H494Y

increase of modified nucleotide incorporation: at least two-fold
B6: 9° N D141A/E143A/Y409A/R406V/L408Y: 9° N DNA polymerase mutant (protein, UniProt Q56366 1-775, looked up, variant D141A E143A Y409A R406V L408Y)
DNA polymerase: B1 DNA polymerase with R406V, L408Y, Y409A, V491N, H494Y

increase of modified nucleotide incorporation: at least two-fold
B7: 9° N D141A/E143A/Y409A/R406Y/L408G: 9° N DNA polymerase mutant (protein, UniProt Q56366 1-775, looked up, variant D141A E143A Y409A R406Y L408G)
DNA polymerase: B1 DNA polymerase with R406Y, L408G, Y409A, V491N, H494Y

increase of modified nucleotide incorporation: at least two-fold
B8: 9° N D141A/E143A/R406P/L408G: 9° N DNA polymerase mutant (protein, UniProt Q56366 1-775, looked up, variant D141A E143A R406P L408G)
DNA polymerase: B1 DNA polymerase with R406P, L408G, V491N, H494Y

increase of modified nucleotide incorporation: at least two-fold
B9: 9° N D141A/E143A/R406L/L408E: 9° N DNA polymerase mutant (protein, UniProt Q56366 1-775, looked up, variant D141A E143A R406L L408E)
DNA polymerase: B1 DNA polymerase with R406L, L408E, V491N, H494Y

increase of modified nucleotide incorporation: at least two-fold
B10: 9° N exo-P410V: 9° N DNA polymerase mutant (protein, UniProt Q56366 1-775, looked up, variant D141A E143A P410V)
DNA polymerase: B1 DNA polymerase with P410V, V491N, H494Y

increase of modified nucleotide incorporation: at least two-fold
B11: 9° N D141A/E143A/Y409A/R406V: 9° N DNA polymerase mutant (protein, UniProt Q56366 1-775, looked up, variant D141A E143A Y409A R406V)
DNA polymerase: B1 DNA polymerase with R406V, Y409A, V491N, H494Y

increase of modified nucleotide incorporation: at least two-fold
B12: 9° N D141A/E143A/Y409A/R406P/L408C: 9° N DNA polymerase mutant (protein, UniProt Q56366 1-775, looked up, variant D141A E143A Y409A R406P L408C)
DNA polymerase: B1 DNA polymerase with R406P, L408C, Y409A, V491N, H494Y

increase of modified nucleotide incorporation: at least two-fold
B13: 9° N D141A/E143A/Y409A/R406S/L408K: 9° N DNA polymerase mutant (protein, UniProt Q56366 1-775, looked up, variant D141A E143A Y409A R406S L408K)
DNA polymerase: B1 DNA polymerase with R406S, L408K, Y409A, V491N, H494Y

increase of modified nucleotide incorporation: at least two-fold
B14: 9° N D141A/E143A/Y409A/R406T/L408K: 9° N DNA polymerase mutant (protein, UniProt Q56366 1-775, looked up, variant D141A E143A Y409A R406T L408K)
DNA polymerase: B1 DNA polymerase with R406T, L408K, Y409A, V491N, H494Y

increase of modified nucleotide incorporation: at least two-fold
B15: 9° N D141A/E143A/Y409A/R406T/L408R: 9° N DNA polymerase mutant (protein, UniProt Q56366 1-775, looked up, variant D141A E143A Y409A R406T L408R)
DNA polymerase: B1 DNA polymerase with R406T, L408R, Y409A, V491N, H494Y

increase of modified nucleotide incorporation: at least two-fold
B16: 9° N D141A/E143A/Y409A/R406S/L408I: 9° N DNA polymerase mutant (protein, UniProt Q56366 1-775, looked up, variant D141A E143A Y409A R406S L408I)
DNA polymerase: B1 DNA polymerase with R406S, L408I, Y409A, V491N, H494Y

increase of modified nucleotide incorporation: at least two-fold
B17: 9° N D141A/E143A/R406T/L408R: 9° N DNA polymerase mutant (protein, UniProt Q56366 1-775, looked up, variant D141A E143A R406T L408R)
DNA polymerase: B1 DNA polymerase with R406T, L408R, V491N, H494Y

increase of modified nucleotide incorporation: at least two-fold
B18: 9° N D141A/E143A/R406S/L408R: 9° N DNA polymerase mutant (protein, UniProt Q56366 1-775, looked up, variant D141A E143A R406S L408R)
DNA polymerase: B1 DNA polymerase with R406S, L408R, V491N, H494Y

increase of modified nucleotide incorporation: at least two-fold
B19: 9° N D141A/E143A/Y409A/R406S/L408R: 9° N DNA polymerase mutant (protein, UniProt Q56366 1-775, looked up, variant D141A E143A Y409A R406S L408R)
DNA polymerase: B1 DNA polymerase with R406S, L408R, Y409A, V491N, H494Y

increase of modified nucleotide incorporation: at least two-fold
B20: 9° N D141A/E143A/R406V/L408R: 9° N DNA polymerase mutant (protein, UniProt Q56366 1-775, looked up, variant D141A E143A R406V L408R)
DNA polymerase: B1 DNA polymerase with R406V, L408R, V491N, H494Y

increase of modified nucleotide incorporation: at least two-fold
B21: 9° N D141A/E143A/Y409A/R406H/L408G: 9° N DNA polymerase mutant (protein, UniProt Q56366 1-775, looked up, variant D141A E143A Y409A R406H L408G)
DNA polymerase: B1 DNA polymerase with R406H, L408G, Y409A, V491N, H494Y
